This is an account of results in patent US20090138978A1 (GENERAL HOSPITAL, published 2009).

In experiment [1] the target is Gal4-PDX-1 (Gal4 fusion protein of PDX-1) (UniProt P04386). Briefly: cell-based or functional assay.
In experiment [2] the target is p300 (full-length histone acetyltransferase and nuclear receptor coactivator) (UniProt Q09472). As to the kind of experiment: cell-based or functional assay.
The target of experiment [3] is human PDX-1/IPF-1 mutant P63fsdelC, [35S]-radiolabeled in vitro translated (human) (UniProt P52945). As to the kind of experiment: GST pull-down with [35S]-labelled human PDX-1 proteins; reference is wild-type human PDX-1.
Sequence of human PDX-1/IPF-1 mutant P63fsdelC, [35S]-radiolabeled in vitro translated (human) (P52945 1-62, stated change not applied): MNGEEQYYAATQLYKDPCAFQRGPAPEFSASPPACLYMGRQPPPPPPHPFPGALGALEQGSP
For experiment [4], the target named is T1, LexA-rat PDX-1 bait fusion protein (PDX-1 amino acids 160-283) (rat, UniProt P52947 160-283).
T1 construct: range 160-283; also called carboxy-terminal PDX-1 protein fragment; not shown: LexA moiety encoded by the yeast bait vector pEG202
T1 sequence (P52947 160-283 limits assumed): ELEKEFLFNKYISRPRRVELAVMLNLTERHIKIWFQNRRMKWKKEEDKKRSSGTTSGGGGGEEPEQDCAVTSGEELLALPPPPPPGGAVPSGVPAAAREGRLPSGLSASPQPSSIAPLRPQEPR
Briefly: yeast two-hybrid interaction trap; - means no growth on leucine dropout plates and white colonies on X-gal plates.

A further experiment deals with T2, GST-p300 (1572-2370) (UniProt Q09472 1572-2370).
T2 construct: also called carboxy-terminal segment of p300; not shown: glutathione S-transferase
T2 sequence (looked up): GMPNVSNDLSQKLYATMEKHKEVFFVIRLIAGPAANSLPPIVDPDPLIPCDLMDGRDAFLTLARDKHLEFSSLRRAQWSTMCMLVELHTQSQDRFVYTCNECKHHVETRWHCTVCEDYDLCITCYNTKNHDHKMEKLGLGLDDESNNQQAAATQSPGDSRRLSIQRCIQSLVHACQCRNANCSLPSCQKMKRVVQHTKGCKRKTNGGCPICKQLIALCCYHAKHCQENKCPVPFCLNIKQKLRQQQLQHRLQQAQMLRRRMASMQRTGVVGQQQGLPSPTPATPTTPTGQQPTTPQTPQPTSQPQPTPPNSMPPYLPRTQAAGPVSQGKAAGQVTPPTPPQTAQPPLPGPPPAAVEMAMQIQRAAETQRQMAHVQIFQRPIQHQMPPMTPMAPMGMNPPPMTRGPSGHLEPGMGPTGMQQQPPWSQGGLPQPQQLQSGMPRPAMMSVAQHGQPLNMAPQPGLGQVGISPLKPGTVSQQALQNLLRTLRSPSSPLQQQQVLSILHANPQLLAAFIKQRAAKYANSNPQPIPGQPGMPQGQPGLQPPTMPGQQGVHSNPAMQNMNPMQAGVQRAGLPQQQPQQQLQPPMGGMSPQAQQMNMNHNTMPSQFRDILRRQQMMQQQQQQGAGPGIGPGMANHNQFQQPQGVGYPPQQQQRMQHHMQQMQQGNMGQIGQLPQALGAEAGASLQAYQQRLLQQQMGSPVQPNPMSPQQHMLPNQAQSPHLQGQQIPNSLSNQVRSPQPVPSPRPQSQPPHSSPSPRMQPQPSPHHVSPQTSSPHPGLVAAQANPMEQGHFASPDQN
Briefly: GST pull-down with [35S]-labelled in vitro translated Bridge-1.

Experiment [5] deals with T3, p300 (full-length histone acetyltransferase and nuclear receptor coactivator) (UniProt Q09472 2-2414, limits assumed, [35S]-methionine labelled in the pull-down assays).
T3 construct: mature; In vitro translated in rabbit reticulocyte lysate for the pull-downs; Expressed from pCMV-p300 in BHK cells for the reporter assay; also called [35S]-p300; radiolabeled in vitro translated full-length p300
T3 sequence (Q09472 2-2414 limits assumed): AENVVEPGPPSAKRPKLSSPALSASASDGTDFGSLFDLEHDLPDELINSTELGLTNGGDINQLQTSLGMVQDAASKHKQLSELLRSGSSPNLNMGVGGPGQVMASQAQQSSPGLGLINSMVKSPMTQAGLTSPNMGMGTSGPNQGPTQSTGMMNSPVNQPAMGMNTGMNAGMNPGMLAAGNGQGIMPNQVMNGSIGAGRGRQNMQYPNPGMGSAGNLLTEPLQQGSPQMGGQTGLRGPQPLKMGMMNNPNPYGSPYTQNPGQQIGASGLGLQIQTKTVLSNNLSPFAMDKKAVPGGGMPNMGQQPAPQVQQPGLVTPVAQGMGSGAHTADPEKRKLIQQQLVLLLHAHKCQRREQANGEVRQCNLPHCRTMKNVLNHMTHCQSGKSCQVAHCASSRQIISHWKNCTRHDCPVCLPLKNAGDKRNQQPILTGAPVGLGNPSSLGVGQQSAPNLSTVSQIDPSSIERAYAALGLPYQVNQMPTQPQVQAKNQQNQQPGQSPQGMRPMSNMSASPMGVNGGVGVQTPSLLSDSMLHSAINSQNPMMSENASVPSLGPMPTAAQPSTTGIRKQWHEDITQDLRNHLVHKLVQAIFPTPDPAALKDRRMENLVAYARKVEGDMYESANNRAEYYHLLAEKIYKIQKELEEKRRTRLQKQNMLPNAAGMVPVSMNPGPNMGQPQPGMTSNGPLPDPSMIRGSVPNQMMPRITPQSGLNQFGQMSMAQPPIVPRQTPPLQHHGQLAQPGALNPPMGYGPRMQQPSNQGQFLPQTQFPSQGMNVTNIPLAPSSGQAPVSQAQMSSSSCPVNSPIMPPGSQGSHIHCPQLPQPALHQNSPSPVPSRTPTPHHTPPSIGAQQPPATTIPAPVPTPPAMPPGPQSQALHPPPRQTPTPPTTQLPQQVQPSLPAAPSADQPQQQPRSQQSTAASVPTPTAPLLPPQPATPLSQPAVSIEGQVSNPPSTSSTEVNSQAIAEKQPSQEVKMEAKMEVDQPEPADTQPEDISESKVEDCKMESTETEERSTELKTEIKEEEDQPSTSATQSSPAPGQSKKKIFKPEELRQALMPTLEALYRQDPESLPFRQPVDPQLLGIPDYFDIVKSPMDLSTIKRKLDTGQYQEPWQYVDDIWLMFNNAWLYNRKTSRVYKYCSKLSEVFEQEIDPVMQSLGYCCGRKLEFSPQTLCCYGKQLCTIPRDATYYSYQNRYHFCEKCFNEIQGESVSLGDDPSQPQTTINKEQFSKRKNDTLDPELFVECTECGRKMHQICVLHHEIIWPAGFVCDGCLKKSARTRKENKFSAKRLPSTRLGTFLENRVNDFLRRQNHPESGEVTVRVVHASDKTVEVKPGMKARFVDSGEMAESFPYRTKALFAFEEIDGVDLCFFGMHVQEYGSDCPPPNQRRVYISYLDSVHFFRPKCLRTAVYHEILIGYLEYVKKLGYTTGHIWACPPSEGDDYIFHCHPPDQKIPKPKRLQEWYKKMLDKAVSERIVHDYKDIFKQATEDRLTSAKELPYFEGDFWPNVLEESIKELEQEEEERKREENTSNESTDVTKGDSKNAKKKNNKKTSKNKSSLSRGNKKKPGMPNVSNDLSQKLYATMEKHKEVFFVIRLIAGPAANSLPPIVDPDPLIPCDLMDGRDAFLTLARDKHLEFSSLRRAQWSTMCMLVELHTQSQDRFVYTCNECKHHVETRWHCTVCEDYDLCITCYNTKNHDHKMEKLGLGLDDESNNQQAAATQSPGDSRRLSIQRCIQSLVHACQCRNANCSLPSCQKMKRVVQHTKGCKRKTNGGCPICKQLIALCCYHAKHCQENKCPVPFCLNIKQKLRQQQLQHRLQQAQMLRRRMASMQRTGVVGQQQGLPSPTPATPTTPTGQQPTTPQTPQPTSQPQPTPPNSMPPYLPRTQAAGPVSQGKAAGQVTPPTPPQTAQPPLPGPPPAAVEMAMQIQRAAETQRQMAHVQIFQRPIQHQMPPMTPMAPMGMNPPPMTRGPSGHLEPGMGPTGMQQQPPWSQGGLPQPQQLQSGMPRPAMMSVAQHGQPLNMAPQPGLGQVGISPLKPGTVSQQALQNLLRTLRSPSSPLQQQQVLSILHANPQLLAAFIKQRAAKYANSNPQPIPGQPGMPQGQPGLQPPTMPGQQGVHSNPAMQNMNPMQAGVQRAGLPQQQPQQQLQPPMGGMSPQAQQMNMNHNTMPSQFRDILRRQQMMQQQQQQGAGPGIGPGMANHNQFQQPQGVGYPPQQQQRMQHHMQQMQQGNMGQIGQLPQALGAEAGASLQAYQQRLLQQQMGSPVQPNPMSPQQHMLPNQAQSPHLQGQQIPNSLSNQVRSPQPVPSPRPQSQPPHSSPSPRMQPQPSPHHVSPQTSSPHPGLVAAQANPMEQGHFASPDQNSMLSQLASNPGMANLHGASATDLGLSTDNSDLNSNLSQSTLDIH
Briefly: GST pull-down with [35S]-labelled in vitro translated p300.

Sequence of p300 (full-length histone acetyltransferase and nuclear receptor coactivator) (UniProt Q09472) (Q09472 2-2414 limits assumed): as above

As for “Gal4-Bridge-1 (Gal4 DNA-binding domain fused to full-length rat Bridge-1) (from UniProt P04386 1-147)”, the activation of a Gal4-CAT reporter in transfected BHK cells was 76 fold in experiment [1] and over 70 fold in experiment [2].
As for “GST-Bridge-1 (glutathione-S-transferase fused to full-length rat Bridge-1) (from UniProt P08515 1-218)”, the fold stronger interaction as compared to the wild-type PDX-1 protein in experiment [3] is over 2 fold.

B1: rat inhibitor of differentiation-3 (Id3) (yeast interaction trap control protein) (other, UniProt P41138 1-119, looked up)
chain: MKALSPVRGCYEAVCCLSERSLAIARGRGKSPSAEEPLSLLDDMNHCYSRLRELVPGVPRGTQLSQVEILQRVIDYILDLQVVLAEPAPGPPDGPHLPIQTAELTPELVISKDKRSFCH
notes: Control protein tested against the PDX-1 bait
B1: the binding result in experiment [4] is reported as “no binding”.

B2: rat Bridge-1 (full-length, 1-222) (other)
chain: MSSEEVRHRAESSEARAAAVSDIQELMRRKEEIEAQIKANYDVLESQKGIGMNEPLVDCEGYPRADVDLYQVRTARHNIICLQNDHKALMKQVEEALHQLHARDKEKQARDMAEAREEAMNRRLASDSPALPKAFARVNSISPGSPASIAGLQVDDEIVEFGSVNTQNFQSLQNVGTVVQHSEGKPLNVMVIRRGEKHQLRLTPTRWAGKGLLGCNITPLQR
modifications: [35S]-methionine labelled in the pull-down assays
notes: In vitro translated from pcDNA3-Bridge-1 in rabbit reticulocyte lysate for the pull-downs; Expressed from the same vector in BHK and HeLa cells for the reporter assays; also called [35S]-Bridge-1; radiolabeled in vitro translated Bridge-1
Regarding B2, the binding result in the experiment with GST-p300 (1572-2370) is on record as “no binding”.

B3: GST-Bridge-1 (D156P) (other)
chain: MSSEEVRHRAESSEARAAAVSDIQELMRRKEEIEAQIKANYDVLESQKGIGMNEPLVDCEGYPRADVDLYQVRTARHNIICLQNDHKALMKQVEEALHQLHARDKEKQARDMAEAREEAMNRRLASDSPALPKAFARVNSISPGSPASIAGLQVDPEIVEFGSVNTQNFQSLQNVGTVVQHSEGKPLNVMVIRRGEKHQLRLTPTRWAGKGLLGCNITPLQR
notes: also called mutant GST-Bridge-1 fusion protein D156P; not shown: N-terminal glutathione-S-transferase carrier encoded by pGEX-5X-1, plus the short vector-derived linker
Regarding B3, the binding result in experiment [5] is on record as “no binding”.
